Experimental data reported in the nanobody polyreactivity screen of Harvey et al. (2022).

Assay: yeast display, Sf9 membrane polyspecificity reagent, FACS + sequencing; frameworks hold sequencing errors
Summary of the method: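 After 36–48 hours of galactose induction, yeast (Saccharomyces cerevisiae BJ5465) displaying a synthetic nanobody library were stained at 4 °C for 1 hour with 10% biotinylated, detergent-solubilized Sf9 membrane reagent. Streptavidin microbeads enriched the stained cells before FACS sorting into low and high (top ~1%) gates on anti-HA and streptavidin fluorescence. Each clone's polyreactivity label reflects its gate of origin.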

| Sequence | polyreactivity (PSR sort gate) |
| --- | --- |
| QVQLVESGGGLVQAGGSLRLSCAASGSTFWVYTMGWYRQAPGKERELVAAINYSDGSTYYADSVKGRFTISRDNAKNTVYLQMNRLKPEDTAVYYCAAGSDPTGRRYDYWGQGTQVTVSS | low polyreactivity |
| QVQLVESGGGLVQAGGSLRLSCAASGSTFWWYAMGWYRQAPGKERELVADITTGGSTNYADSVKGRFTISRDNAKNTVYLQMNSLKPEDTAVYYCNADGVTPYTWRLRYFKYHFDYWGQGTQVTVSS | low polyreactivity |
| QVQLVESGGGLVQAGGSLRLSCAASGSTFWYNAMGWYRQAPGKERELVARISYSGGSTYYADSVKGRFTISRDNAKNTVYLQMNSLKPEDTAVYYCAARRPYKYDYWGQGTQVTVSS | high polyreactivity |
| QVQLVESGGGLVQAGGSLRLSCAASGSTFWYYAMGWFRQAPGKERELVAAITRGASTNYADSVKGRFTISRDNAKNTVYLQMNSLKPEDTAVYYCAAGPARWKGYYWGQGTQVTVSS | high polyreactivity |
| QVQLVESGGGLVQAGGSLRLSCAASGSTFWYYAMGWYRPAPGKERELVAAITISGGSTYYADSVKGRFTISRDNAKNTVYLQMNSLKPEDTAVYYCATDDTHRVGWFDYWGQGTQVTVSS | low polyreactivity |
| QVQLVESGGGLVQAGGSLRLSCAASGSTFWYYAMGWYRQAPGKERELVAAIRWSDGSTYYADSVKGRFTISRDNAKNTVYLQMNSLKPEDTAVYYCEYYYWGQGTQVTVSS | low polyreactivity |
| QVQLVESGGGLVQAGGSLRLSCAASGSTFWYYAMGWYRQAPGKERELVATITTSGGNTYYADSVKGRFTISRDNAKNTVYLQMNSLKPEDTAVYYCAARRYRASSRGYGYWGQGTQVTVSS | high polyreactivity |
| QVQLVESGGGLVQAGGSLRLSCAASGSTFWYYAMGWYRQAPGKEWEFVAAIKWSGGRTDYADSVKGRFTISRDIAKNTVYLQMNSLKAEDTAVYYFAADYSFRSFPIDANVLGYEYWGQGTQVTVSS | high polyreactivity |
| QVQLVESGGGLVQAGGSLRLSCAASGSTFWYYTMGSYRQAPGKERELVAAIRYSGTRTYYADSVKGRFTISRDNAKTTVYLQMNSLKPEDTAVYYCARYRTPGYQAYLYDYWGQGTQVTVSS | low polyreactivity |
| QVQLVESGGGLVQAGGSLRLSCAASGSTFYANAMGWYRQAPGKERELVAAITSGGSTNYADSVKGRFTISRDNAKNTVYLQMNSLKPEDTAVYYCATPVNRERHAEDYWGQGTQVTVSS | low polyreactivity |
| QVQLVESGGGLVQAGGSLRLSCAASGSTFYANVMGWYRQAPGKDRELVGAIEGSGGRTDYADSVKGRFTISRDNAKNTVYLQMHSLKPEDTAVYYCAKKRIVPVKQFGRDYNYWGQGTQVTVSS | high polyreactivity |
| QVQLVESGGGLVQAGGSLRLSCAASGSTFYAYALGWYRQAPGKERELVAAISSDGTNYADSVKGRFTISRDNAKNTVYLQMNSLKPVDTAVYYCAADLLLYSSQDNDYWGQGTQVTVSS | low polyreactivity |
| QVQLVESGGGLVQAGGSLRLSCAASGSTFYAYAMGWYRHAPGKERELVAAIDSGGSTYYADSVKGRFTISRDNAKNTVYFQMNSLKPEDTAVYYCAVRHRYTRAYWGRDYWGQGTQVTVSS | low polyreactivity |
| QVQLVESGGGLVQAGGSLRLSCAASGSTFYAYAMGWYRQAPGKERELVAAINGSGGSTNYADSVKGRFTISRDNAKHTDYLQMNSQKPEDTAVYYCAADWSRRLYDYWGQGTQVTVSS | low polyreactivity |
| QVQLVESGGGLVQAGGSLRLSCAASGSTFYAYAMGWYRQAPGKERELVAAIRISGTSTYYADSVKGRFTISRDNAKNTVYLQMNSLKPEDSAVYYCNTLATYVAHNDYWGQGTQVTVSS | high polyreactivity |
| QVQLVESGGGLVQAGGSLRLSCAASGSTFYAYAMGWYRQAPGKERELVASITYSGVSTYYADSVKGRFTISRDNAKNTVYLQMNSLKPEDTAVYYCATDYSHITYSHYRWWYNEYEYWGQGTQVTVSS | low polyreactivity |
| QVQLVESGGGLVQAGGSLRLSCAASGSTFYAYAMGWYRQEPGKERELVAAINSVGSTYYADSVKGRFTISRDNAKNTVYLQMNSLKPEDTAVYYCARGVDYPTSQPPYFRHDYWGQGTQVTVSS | low polyreactivity |
| QVQLVESGGGLVQAGGSLRLSCAASGSTFYAYTMGWYRQAPGKERELVAAISSGGGTYYADSVKGRFTISRDNAKNTVYLQMNSLKPEDTAVYYCAADPVGYYDPSDYWGQGTQVTVSS | low polyreactivity |
| QVQLVESGGGLVQAGGSLRLSCAASGSTFYAYVMGWYRQAPGKERELVAAIRSSGGRTYYADSVKGRFTISRDNAKNTLYLQMNSLKPEDSAVYYCAKAIWATRQYLRFTDYDYWGQGTQVTVSS | high polyreactivity |
| QVQLVESGGGLVQAGGSLRLSCAASGSTFYCYVMGWYRQAPGKERALVAAISSGGGTYYADSVKGRFTISRDNAKNTVYLQMNSLKPEDTAVYYSAADASDGQSWYEDYEYDYWGQGTQVTVSS | low polyreactivity |
| QVQLVESGGGLVQAGGSLRLSCAASGSTFYDNAKGWYRPAPGKERELVAAISYSGASTYYADSVKGRFTISRDNAQNTVYLQMNSLKPEDTAVYYCSKTFYSLYWGQGTQVTVSS | low polyreactivity |
| QVQLVESGGGLVQAGGSLRLSCAASGSTFYDYAMGWYRQAPGKERELVASITTGGDSTYYADSVKGRFTISRDNAKNTVYLQMNSLKPEDTAVYYCNADWYYWISNYQGAPEMDYWGQGTQVTVSS | high polyreactivity |

| Sequence | polyreactivity (PSR sort gate) |
| --- | --- |
| QVQLVESGGGLVQAGGSLRLSCAASGSTFYDYVMGWYRQAPGKERELVAVISSSGSTNYADSVKGRITISRDNAKNTVYLQMNSLKTEDTAVYYCAAEYTFDWLEFDYWGQGTQVTVSS | low polyreactivity |
| QVQLVESGGGLVQAGGSLRLSCAASGSTFYEYAMGWYRQAPGKERELVAAISSGGSTYYADSVKGRFTISRDNAKNTVYLQMNSLKPEDTAVYYCNADCQTYGGEYDYWGQGTQVTVSS | low polyreactivity |
| QVQLVESGGGLVQAGGSLRLSCAASGSTFYEYAMGWYRQAPGKERELVAAISWSDVDTYYADSVKGRFTISRDNAKNTVYLQMNSLKPEDTAVYYCAAEWYHPYTQEMDYWGQGTQVTVSS | high polyreactivity |
| QVQLVESGGGLVQAGGSLRLSCAASGSTFYFNAMGWYRPAPGKERELVAAIDWSGGSTYYADSVKGRFTISRDNAKNTVYLQMNSLKPEDTAVYYCAADISVGRYGDMDYYYKVDYWGQGTQVTVSS | low polyreactivity |
| QVQLVESGGGLVQAGGSLRLSCAASGSTFYFNAMGWYRQAPGKEREFVAGIRYSGSSTYYADSVKGRFTISRDNAKNTVYLQMNSLKPEDTAVYYCAAERWCYTVRGYGYWGHGTQVTVSS | high polyreactivity |
| QVQLVESGGGLVQAGGSLRLSCAASGSTFYFNAMGWYRQAPGKERELVAAIDWSGGSTYYADSVKGRFTISRDNAKNTVYLQMNSLKPEDTAVYYCNADNYEWGNNYGYWGQGTQVTVSS | low polyreactivity |
| QVQLVESGGGLVQAGGSLRLSCAASGSTFYFNAMGWYRQAPGKERELVAGIRYSGSSTYYADSVKGRFTISRDNAKNTVYLQMNSLKPEDTAVYYCAARYSVYPRVSKYSYRFNYWGQGTQVTVSS | high polyreactivity |
| QVQLVESGGGLVQAGGSLRLSCAASGSTFYFNAMGWYRQAPGKERELVAGITYSGDSTYYADSVKGRFTISRDNAKNTVYLQMNSLKPEDTAVYYCAADVDYDLDGDYWGQGTQVTVSS | low polyreactivity |
| QVQLVESGGGLVQAGGSLRLSCAASGSTFYFNTMGWYRQAPGKERELVAAIRRSSGSTYYADSVKGRFTISRDNAKNTVYLQMNSLKPEDTAVYYCAADNAVTRYGRIDRDYWGQGTQVTVSS | low polyreactivity |
| QVQLVESGGGLVQAGGSLRLSCAASGSTFYFYAMGWYRQAPGKEREFVARISNRDGSTYYADSVKGRFTISRDNAKNTVYLQMNSLKPEDTAVYYCAVKQRASHYPYYSWGQGTQVTVSS | high polyreactivity |
| QVQLVESGGGLVQAGGSLRLSCAASGSTFYFYTMGWYRQAPGKERELVAAISQDGGSTYYADSVKGRFTISRDNAKNTVYLQMNSLKPEDTAVYYCAADKRGTVYLSSFWMDYWGQGTQVTVSS | low polyreactivity |
| QVQLVESGGGLVQAGGSLRLSCAASGSTFYFYVMGWYRQAPGKERELVAAITWSGGRTSYADSVKGRFTISRDNAKNTVYLQMNSLKPEDTAVYYCAKDLQNSSHPSRYDYWGQGTQVTVSS | low polyreactivity |
| QVQLVESGGGLVQAGGSLRLSCAASGSTFYGYAMGWYRQAPGKERELVAAITLIGTSTYYADSVKCRFTISRDNAKNTVYLQMNSLKPEDTAVYYCAAEISYGYGYWGQGTQVTVSS | low polyreactivity |
| QVQLVESGGGLVQAGGSLRLSCAASGSTFYGYAMGWYRQAPGKERELVAGITSAGSTYYADSVKGRFTISRDNAKNTVYLQMNSLKPEDTAVYYCAYHGAGYYYWGQGTQVTVSS | high polyreactivity |
| QVQLVESGGGLVQAGGSLRLSCAASGSTFYGYGMGWYRQAPGKERELVAAITGSGDTTYYADSVKGRFTISRDNAKNSVYLQMNSLKPEDTAVYYCNARWHAEYDYWGQGTQVTVSS | low polyreactivity |
| QVQLVESGGGLVQAGGSLRLSCAASGSTFYGYGMGWYRQAPGKERELVAAITGSGDTTYYADSVKGRFTISRDNAKNTVYLQMNSLKPEDTAVYYCNARWLAEYDYWGQGTQVTVSS | low polyreactivity |
| QVQLVESGGGLVQAGGSLRLSCAASGSTFYGYTMGWYRQAPGKERELVAAISSSGSSTYYADSVKGRFTISRDNAKNTVYLQMNSLKPEDTAVYYCAAATRVPGHGSTSYYYWGQGTQVTVSS | high polyreactivity |
| QVQLVESGGGLVQAGGSLRLSCAASGSTFYHNVKGWYRQAPWKERELVASIDTGDSTNYADTVKGRFSISRDNAKKTVYLQMNSLKPEDTAVYYCNADSYPALNKRGYEYWGQGTQVTVSS | low polyreactivity |
| QVQLVESGGGLVQAGGSLRLSCAASGSTFYHYAMGWYRQAPGKERELVAAISWSGGSTYYADSVKGSFTISRDNAKNTVYLLMYSLKPEDTAVYYCNALLSGLTSTEYDYWGQGTQVTVSS | high polyreactivity |
| QVQLVESGGGLVQAGGSLRLSCAASGSTFYHYTMGWYRQAPGKERELVARISRSGGSTYYADSVKGRFTISRDNAKNTVYLQMNSLKPEDTAGYYCNKGSFYGSSQVGGTGYDYWGQGTQVTVSS | low polyreactivity |
| QVQLVESGGGLVQAGGSLRLSCAASGSTFYHYVMGWYRQAPGKERELGAAISWRGGRTYYADSVKGRFTISRDTAKNTVYLQMNSLKPEDTAVYYCARAYFQPSYYGVEYNYWGQGTQVTVSS | high polyreactivity |
